Bridges are numbered along the chain shown (N, C = ends). Where no end group is shown, it is not given here. [ ]: non-standard residue; d: D form. The star is where a group is joined. Acetyl(2-(4-imidazolyl)) = O=C(Cc1c[nH]cn1)*; Aib = CC(C)(N)C(=O)O
Target: human GLP-1 receptor (human, UniProt P43220 24-463)
Experiment: cell-based or functional assay

| Binder | in vitro Activity Compared to Native Peptide (%), vs GLP-1 [%] |
| --- | --- |
| [Acetyl(2-(4-imidazolyl))][Aib]QGTFTSDYSIAMDEIHQKDFVNWLLAQC (bridge 16-20; not fully specified (C-terminus)) [triple agonist of SEQ ID NO: 85] | 4.3 |
| [Acetyl(2-(4-imidazolyl))][Aib]QGTFTSDYSIAMDEIHQKDFVNWLLNTC (bridge 16-20; not fully specified (C-terminus)) [triple agonist of SEQ ID NO: 87] | 0.9 |
| Y[Aib]QGTFTSDYSKALDEKAAKDFVNWLLDHHPSSGQPPPSC (bridge 16-20; not fully specified (C-terminus)) [triple agonist of SEQ ID NO: 99] | 20.9 |
| Y[Aib]QGTFTSDYSKALDEKAAKEFVNWLLDQHPSSGQPPPSC (bridge 16-20; not fully specified (C-terminus); also: ring type not given here) [triple agonist of SEQ ID NO: 101] | 23.2 |
| H[Aib]QGTFTSDVSKYLDGQAAQEFVAWLLAGGGPSSGAPPPSC-NH2 [triple agonist of SEQ ID NO: 10] | 46 |
| [Acetyl(2-(4-imidazolyl))][Aib]QGTFTSDYSIAMDEIHQKDFVNWLLAQKC (bridge 16-20; not fully specified (C-terminus)) [triple agonist of SEQ ID NO: 92] | 0.8 |
| Y[Aib]QGTFTSDYSKALDEKAAKEFVNWLLDHHPSSGQPPPSC (bridge 16-20; not fully specified (C-terminus)) [triple agonist of SEQ ID NO: 98] | 28.1 |
| [Acetyl(2-(4-imidazolyl))][Aib]QGTFTSDYSKYLDEKRQKEFVNWLLAQKC (bridge 16-20; not fully specified (C-terminus)) [triple agonist of SEQ ID NO: 93] | 5.7 |
| [Acetyl(2-(4-imidazolyl))]GEGTFISDLSKYMDEQAVQLFVEWLMAGGPSSGAPPPSHG-NH2 [triple agonist of SEQ ID NO: 12] | 0.4 |
| [Acetyl(2-(4-imidazolyl))]GEGTFTSDLSKYLDSRRQQLFVQWLKAGGPSSGAPPPSHG-NH2 [triple agonist of SEQ ID NO: 11] | 1.4 |
| [Acetyl(2-(4-imidazolyl))][Aib]EGTFTSDYSIAMDEIHQKDFVDWLLAEC (bridge 16-20; not fully specified (C-terminus)) [triple agonist of SEQ ID NO: 84] | 4.2 |
| H[Aib]QGTFTSDVSKYLDGQAAQEFVAWLLAGC (not fully specified (C-terminus)) [triple agonist of SEQ ID NO: 9] | 32.1 |
| [Acetyl(2-(4-imidazolyl))][Aib]QGTFTSDYSKYLDEKRQKEFVQWLLNTKC (bridge 16-20; not fully specified (C-terminus)) [triple agonist of SEQ ID NO: 88] | 9.6 |

Target: human GCG receptor (human, UniProt P47871 26-477)
Experiment: cell-based or functional assay

human GCG receptor, sequence (P47871 26-477): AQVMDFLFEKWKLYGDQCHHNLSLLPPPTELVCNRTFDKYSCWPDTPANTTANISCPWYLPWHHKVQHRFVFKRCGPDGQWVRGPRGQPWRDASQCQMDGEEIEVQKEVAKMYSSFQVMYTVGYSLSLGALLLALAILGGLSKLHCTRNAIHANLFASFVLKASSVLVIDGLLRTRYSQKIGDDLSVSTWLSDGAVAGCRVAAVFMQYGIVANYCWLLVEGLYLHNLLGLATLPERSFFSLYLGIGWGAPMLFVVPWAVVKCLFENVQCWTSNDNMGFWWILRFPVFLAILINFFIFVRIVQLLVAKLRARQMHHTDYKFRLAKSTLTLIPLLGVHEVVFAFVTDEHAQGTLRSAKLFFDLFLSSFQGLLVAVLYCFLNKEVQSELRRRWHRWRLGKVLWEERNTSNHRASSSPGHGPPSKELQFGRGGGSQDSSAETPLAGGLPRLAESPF

| Binder | in vitro Activity Compared to Native Peptide (%), vs Glucagon [%] |
| --- | --- |
| [Acetyl(2-(4-imidazolyl))][Aib]QGTFTSDYSIAMDEIHQKDFVNWLLAQC (bridge 16-20; not fully specified (C-terminus)) [triple agonist of SEQ ID NO: 85] | < 0.1 |
| [Acetyl(2-(4-imidazolyl))][Aib]QGTFTSDYSIAMDEIHQKDFVNWLLNTC (bridge 16-20; not fully specified (C-terminus)) [triple agonist of SEQ ID NO: 87] | < 0.1 |
| Y[Aib]QGTFTSDYSKALDEKAAKDFVNWLLDHHPSSGQPPPSC (bridge 16-20; not fully specified (C-terminus)) [triple agonist of SEQ ID NO: 99] | 14.9 |
| Y[Aib]QGTFTSDYSKALDEKAAKEFVNWLLDQHPSSGQPPPSC (bridge 16-20; not fully specified (C-terminus); also: ring type not given here) [triple agonist of SEQ ID NO: 101] | 13.9 |
| H[Aib]QGTFTSDVSKYLDGQAAQEFVAWLLAGGGPSSGAPPPSC-NH2 [triple agonist of SEQ ID NO: 10] | < 0.1 |
| [Acetyl(2-(4-imidazolyl))][Aib]QGTFTSDYSIAMDEIHQKDFVNWLLAQKC (bridge 16-20; not fully specified (C-terminus)) [triple agonist of SEQ ID NO: 92] | < 0.1 |
| Y[Aib]QGTFTSDYSKALDEKAAKEFVNWLLDHHPSSGQPPPSC (bridge 16-20; not fully specified (C-terminus)) [triple agonist of SEQ ID NO: 98] | 8.2 |
| [Acetyl(2-(4-imidazolyl))][Aib]QGTFTSDYSKYLDEKRQKEFVNWLLAQKC (bridge 16-20; not fully specified (C-terminus)) [triple agonist of SEQ ID NO: 93] | 0.3 |
| [Acetyl(2-(4-imidazolyl))]GEGTFISDLSKYMDEQAVQLFVEWLMAGGPSSGAPPPSHG-NH2 [triple agonist of SEQ ID NO: 12] | < 0.1 |
| [Acetyl(2-(4-imidazolyl))]GEGTFTSDLSKYLDSRRQQLFVQWLKAGGPSSGAPPPSHG-NH2 [triple agonist of SEQ ID NO: 11] | < 0.1 |
| [Acetyl(2-(4-imidazolyl))][Aib]EGTFTSDYSIAMDEIHQKDFVDWLLAEC (bridge 16-20; not fully specified (C-terminus)) [triple agonist of SEQ ID NO: 84] | < 0.1 |
| H[Aib]QGTFTSDVSKYLDGQAAQEFVAWLLAGC (not fully specified (C-terminus)) [triple agonist of SEQ ID NO: 9] | 0.13 |
| [Acetyl(2-(4-imidazolyl))][Aib]QGTFTSDYSKYLDEKRQKEFVQWLLNTKC (bridge 16-20; not fully specified (C-terminus)) [triple agonist of SEQ ID NO: 88] | 0.3 |

Target: T1, human GIP receptor (human, UniProt P48546 22-466)
T1 sequence (looked up): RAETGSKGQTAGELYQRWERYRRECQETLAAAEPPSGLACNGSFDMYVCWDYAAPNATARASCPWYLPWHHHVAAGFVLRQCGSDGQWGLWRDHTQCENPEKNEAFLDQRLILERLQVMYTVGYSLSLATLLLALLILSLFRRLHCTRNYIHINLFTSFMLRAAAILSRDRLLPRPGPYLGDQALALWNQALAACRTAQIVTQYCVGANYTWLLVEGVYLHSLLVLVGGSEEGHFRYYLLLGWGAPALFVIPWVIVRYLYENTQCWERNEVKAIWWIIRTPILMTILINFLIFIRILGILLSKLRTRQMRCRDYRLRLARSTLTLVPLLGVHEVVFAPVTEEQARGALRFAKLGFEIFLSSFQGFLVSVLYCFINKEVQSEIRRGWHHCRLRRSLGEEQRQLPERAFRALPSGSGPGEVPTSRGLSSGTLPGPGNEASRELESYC
Experiment: cell-based or functional assay

| Binder | in vitro Activity Compared to Native Peptide (%), vs GIP [%] |
| --- | --- |
| [Acetyl(2-(4-imidazolyl))][Aib]QGTFTSDYSIAMDEIHQKDFVNWLLAQC (bridge 16-20; not fully specified (C-terminus)) [triple agonist of SEQ ID NO: 85] | 0.3 |
| [Acetyl(2-(4-imidazolyl))][Aib]QGTFTSDYSIAMDEIHQKDFVNWLLNTC (bridge 16-20; not fully specified (C-terminus)) [triple agonist of SEQ ID NO: 87] | < 0.1 |
| Y[Aib]QGTFTSDYSKALDEKAAKDFVNWLLDHHPSSGQPPPSC (bridge 16-20; not fully specified (C-terminus)) [triple agonist of SEQ ID NO: 99] | 57.7 |
| Y[Aib]QGTFTSDYSKALDEKAAKEFVNWLLDQHPSSGQPPPSC (bridge 16-20; not fully specified (C-terminus); also: ring type not given here) [triple agonist of SEQ ID NO: 101] | 40.1 |
| H[Aib]QGTFTSDVSKYLDGQAAQEFVAWLLAGGGPSSGAPPPSC-NH2 [triple agonist of SEQ ID NO: 10] | < 0.1 |
| [Acetyl(2-(4-imidazolyl))][Aib]QGTFTSDYSIAMDEIHQKDFVNWLLAQKC (bridge 16-20; not fully specified (C-terminus)) [triple agonist of SEQ ID NO: 92] | 0.4 |
| Y[Aib]QGTFTSDYSKALDEKAAKEFVNWLLDHHPSSGQPPPSC (bridge 16-20; not fully specified (C-terminus)) [triple agonist of SEQ ID NO: 98] | 47.1 |
| [Acetyl(2-(4-imidazolyl))][Aib]QGTFTSDYSKYLDEKRQKEFVNWLLAQKC (bridge 16-20; not fully specified (C-terminus)) [triple agonist of SEQ ID NO: 93] | 0.7 |
| [Acetyl(2-(4-imidazolyl))]GEGTFISDLSKYMDEQAVQLFVEWLMAGGPSSGAPPPSHG-NH2 [triple agonist of SEQ ID NO: 12] | < 0.1 |
| [Acetyl(2-(4-imidazolyl))]GEGTFTSDLSKYLDSRRQQLFVQWLKAGGPSSGAPPPSHG-NH2 [triple agonist of SEQ ID NO: 11] | < 0.1 |
| [Acetyl(2-(4-imidazolyl))][Aib]EGTFTSDYSIAMDEIHQKDFVDWLLAEC (bridge 16-20; not fully specified (C-terminus)) [triple agonist of SEQ ID NO: 84] | < 0.1 |
| H[Aib]QGTFTSDVSKYLDGQAAQEFVAWLLAGC (not fully specified (C-terminus)) [triple agonist of SEQ ID NO: 9] | < 0.1 |
| [Acetyl(2-(4-imidazolyl))][Aib]QGTFTSDYSKYLDEKRQKEFVQWLLNTKC (bridge 16-20; not fully specified (C-terminus)) [triple agonist of SEQ ID NO: 88] | < 0.1 |
